Reference: patent US20240059789A1 (Janssen / Centocor, published 2024)

Columns and labels:
Assay in all cases: cell-based or functional assay
[1] = target: Human CD3 on T cells / Jurkat cells (human, UniProt P07766 23-207)
[2] = target: T1, Human PSMA on prostate cancer cell lines (C4-2B, 22RV1) (human, UniProt Q04609 1-750)
[3] = target: T1, Human PSMA on prostate cancer cell …; remark: listed apart in the source
[4] = target: T1, Human PSMA on prostate cancer cell …; remark: listed apart in the source

Human CD3 on T cells / Jurkat cells, sequence (P07766 23-207 limits assumed): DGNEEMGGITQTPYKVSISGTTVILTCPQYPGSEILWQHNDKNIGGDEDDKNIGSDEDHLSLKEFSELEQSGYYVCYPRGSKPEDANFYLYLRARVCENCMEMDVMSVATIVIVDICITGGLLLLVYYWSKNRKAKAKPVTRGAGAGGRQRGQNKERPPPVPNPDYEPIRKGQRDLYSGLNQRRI
T1 sequence (Q04609 whole entry): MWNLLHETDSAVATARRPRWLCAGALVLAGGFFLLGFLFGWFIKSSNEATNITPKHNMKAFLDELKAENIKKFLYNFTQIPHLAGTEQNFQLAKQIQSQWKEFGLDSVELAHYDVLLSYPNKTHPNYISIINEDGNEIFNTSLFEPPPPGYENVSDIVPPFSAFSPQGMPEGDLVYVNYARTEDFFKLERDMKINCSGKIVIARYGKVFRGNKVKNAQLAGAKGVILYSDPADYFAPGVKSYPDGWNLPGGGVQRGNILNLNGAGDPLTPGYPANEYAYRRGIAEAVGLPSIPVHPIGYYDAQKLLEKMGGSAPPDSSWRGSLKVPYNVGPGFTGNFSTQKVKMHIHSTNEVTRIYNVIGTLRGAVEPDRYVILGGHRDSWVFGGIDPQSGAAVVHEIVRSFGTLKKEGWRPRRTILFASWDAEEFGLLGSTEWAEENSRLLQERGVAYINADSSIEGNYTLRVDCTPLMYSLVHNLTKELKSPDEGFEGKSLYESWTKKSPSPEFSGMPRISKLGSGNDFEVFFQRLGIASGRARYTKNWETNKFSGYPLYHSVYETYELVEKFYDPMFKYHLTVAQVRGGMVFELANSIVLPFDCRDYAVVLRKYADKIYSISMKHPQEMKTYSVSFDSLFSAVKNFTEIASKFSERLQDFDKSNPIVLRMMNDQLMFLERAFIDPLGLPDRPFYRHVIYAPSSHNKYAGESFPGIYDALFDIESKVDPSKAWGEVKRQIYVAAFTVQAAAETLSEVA

B1: PS3B930 (bispecific antibody, human IgG1, kappa, lambda, L234A L235A)
heavy 1: EVQLVESGGGLVKPGGSLRLSCAASGFTFSRYNMNWVRQAPGKGLEWVSSISTSSNYIYYADSVKGRFTFSRDNAKNSLDLQMSGLRAEDTAIYYCTRGWGPFDYWGQGTLVTVSSASTKGPSVFPLAPSSKSTSGGTAALGCLVKDYFPEPVTVSWNSGALTSGVHTFPAVLQSSGLYSLSSVVTVPSSSLGTQTYICNVNHKPSNTKVDKKVEPKSCDKTHTCPPCPAPEAAGGPSVFLFPPKPKDTLMISRTPEVTCVVVSVSHEDPEVKFNWYVDGVEVHNAKTKPREEQYNSTYRVVSVLTVLHQDWLNGKEYKCKVSNKALPAPIEKTISKAKGQPREPQVYTLPPSREEMTKNQVSLTCLVKGFYPSDIAVEWESNGQPENNYKTTPPVLDSDGSFLLYSKLTVDKSRWQQGNVFSCSVMHEALHNHYTQKSLSLSP
light 1: DIQMTQSPSSLSASVGDRVTITCRARQSIGTAIHWYQQKPGKAPKLLIKYASESISGVPSRFSGSGSGTDFTLTISSLQPEDFATYYCQQSGSWPYTFGQGTKLEIKRTVAAPSVFIFPPSDEQLKSGTASVVCLLNNFYPREAKVQWKVDNALQSGNSQESVTEQDSKDSTYSLSSTLTLSKADYEKHKVYACEVTHQGLSSPVTKSFNRGEC
heavy 2: EVQLVESGGGLVKPGGSLRLSCAASGFTFSRYNMNWVRQAPGKGLEWVSSINSNSRYIYYADSVKGRFTISRDSAKNSLYLQMNSLRAEDTAVYYCAKTMGDYYYYYGMDVWGQGTTVTVSSASTKGPSVFPLAPSSKSTSGGTAALGCLVKDYFPEPVTVSWNSGALTSGVHTFPAVLQSSGLYSLSSVVTVPSSSLGTQTYICNVNHKPSNTKVDKKVEPKSCDKTHTCPPCPAPEAAGGPSVFLFPPKPKDTLMISRTPEVTCVVVSVSHEDPEVKFNWYVDGVEVHNAKTKPREEQYNSTYRVVSVLTVLHQDWLNGKEYKCKVSNKALPAPIEKTISKAKGQPREPQVYTLPPSREEMTKNQVSLTCLVKGFYPSDIAVEWESNGQPENNYKTTPPVLDSDGSFFLYSRLTVDKSRWQQGNVFSCSVMHEALHNHYTQKSLSLSPG
light 2: QSVLTQPPSVSGAPGQRVTISCTGSSFNLGAGYDVHWYQQVPGTVPKLLIYDNSNRPSGVPDRFSGSKSGTSASLAITGLQAEDETVYYCQSYDSSLSGVVFGGGTKLTVLGQPKAAPSVTLFPPSSEELQANKATLVCLISDFYPGAVTVAWKADSSPVKAGVETTTPSKQSNNKYAASSYLSLTPEQWKSHRSYSCQVTHEGSTVEKTVAPTECS
T cell activation EC50 [M] (CD25+ T cells, C4-2B co-culture, 72 h) [1]: 2.4e-12 M

B2: PS3B1356 (bispecific antibody, human IgG1, lambda, L234A L235A)
heavy 1: QVQLQQSGPGLVKPSQTLSLTCAISGDSVFNNNAAWSWIRQSPSRGLEWLGRTYYRSKWLYDYAVSVKSRITINPDTSKNQFSLQLNSVTPEDTAVYYCARGYSSSFDYWGQGTLVTVSSASTKGPSVFPLAPSSKSTSGGTAALGCLVKDYFPEPVTVSWNSGALTSGVHTFPAVLQSSGLYSLSSVVTVPSSSLGTQTYICNVNHKPSNTKVDKKVEPKSCDKTHTCPPCPAPEAAGGPSVFLFPPKPKDTLMISRTPEVTCVVVSVSHEDPEVKFNWYVDGVEVHNAKTKPREEQYNSTYRVVSVLTVLHQDWLNGKEYKCKVSNKALPAPIEKTISKAKGQPREPQVYTLPPSREEMTKNQVSLTCLVKGFYPSDIAVEWESNGQPENNYKTTPPVLDSDGSFLLYSKLTVDKSRWQQGNVFSCSVMHEALHNHYTQKSLSLSPGK
light 1: QSALTQPASVSGSPGQSITISCTGTSSNIGTYKFVSWYQQHPGKAPKVMIYEVSKRPSGVSNRFSGSKSGNTASLTISGLQAEDEADYYCVSYAGSGTLLFGGGTKLTVLGQPKAAPSVTLFPPSSEELQANKATLVCLISDFYPGAVTVAWKADSSPVKAGVETTTPSKQSNNKYAASSYLSLTPEQWKSHRSYSCQVTHEGSTVEKTVAPTECS
heavy 2: EVQLVESGGGLVQPGGSLRLSCAASGFTFSSYAMSWVRQAPGKGLEWVSAISGGIGSTYYADSVKGRFTISRDNSKNTLWLQMNSLRAEDTAVYYCAKDGVGATPYYFDYWGQGTLVTVSSASTKGPSVFPLAPSSKSTSGGTAALGCLVKDYFPEPVTVSWNSGALTSGVHTFPAVLQSSGLYSLSSVVTVPSSSLGTQTYICNVNHKPSNTKVDKKVEPKSCDKTHTCPPCPAPEAAGGPSVFLFPPKPKDTLMISRTPEVTCVVVSVSHEDPEVKFNWYVDGVEVHNAKTKPREEQYNSTYRVVSVLTVLHQDWLNGKEYKCKVSNKALPAPIEKTISKAKGQPREPQVYTLPPSREEMTKNQVSLTCLVKGFYPSDIAVEWESNGQPENNYKTTPPVLDSDGSFFLYSRLTVDKSRWQQGNVFSCSVMHEALHNHYTQKSLSLSPGK
light 2: QSVLTQPPSVSAAPGQKVTISCSGSSSNIGNNYVSWYQQLPGTAPKLLIYDNNKRPSGIPDRFSGSKSGTSATLGITGLQTGDEADYYCGTWDSSLSAYVFGTGTKVTVLGQPKAAPSVTLFPPSSEELQANKATLVCLISDFYPGAVTVAWKADSSPVKAGVETTTPSKQSNNKYAASSYLSLTPEQWKSHRSYSCQVTHEGSTVEKTVAPTECS
Cytotoxicity (C4-2B cells, 3:1 E:T ratio, 5 Day) at 1.1 nM [2]: 55% | Cytotoxicity (C4-2B cells, 3:1 E:T ratio, 5 Day) at 3.3 nM [2]: 80% | Cytotoxicity (C4-2B cells, 3:1 E:T ratio, 5 Day) at 10 nM [2]: 83% | Cytotoxicity (C4-2B cells, 3:1 E:T ratio, 5 Day) at 30 nM [2]: 88% | % cytolysis at 120 hours (C4-2B, xCelligence, donor #1) at 80 pM [3]: 0% | % cytolysis at 120 hours (C4-2B, xCelligence, donor #1) at 0.4 nM [3]: 100% | % cytolysis at 120 hours (C4-2B, xCelligence, donor #1) at 2 nM [3]: 100% | % cytolysis at 120 hours (C4-2B, xCelligence, donor #1) at 10 nM [3]: 100% | % cytolysis at 120 hours (C4-2B, xCelligence, donor #1) at 50 nM [3]: 100% | % cytolysis at 120 hours (C4-2B, xCelligence, donor #2) at 80 pM [3]: 0% | % cytolysis at 120 hours (C4-2B, xCelligence, donor #2) at 0.4 nM [3]: 24% | % cytolysis at 120 hours (C4-2B, xCelligence, donor #2) at 2 nM [3]: 100% | % cytolysis at 120 hours (C4-2B, xCelligence, donor #2) at 10 nM [3]: 100% | % cytolysis at 120 hours (C4-2B, xCelligence, donor #2) at 50 nM [3]: 100% | % cytolysis at 120 hours (C4-2B, xCelligence, donor #3) at 80 pM [3]: 0% | % cytolysis at 120 hours (C4-2B, xCelligence, donor #3) at 0.4 nM [3]: 100% | % cytolysis at 120 hours (C4-2B, xCelligence, donor #3) at 2 nM [3]: 100% | % cytolysis at 120 hours (C4-2B, xCelligence, donor #3) at 10 nM [3]: 100% | % cytolysis at 120 hours (C4-2B, xCelligence, donor #3) at 50 nM [3]: 100%

B3: PS3B917 (bispecific antibody, human IgG1, lambda, L234A L235A)
heavy 1: QVQLQQSGPRLVRPSQTLSLTCAISGDSVFNNNAAWSWIRQSPSRGLEWLGRTYYRSKWLYDYAVSVKSRITVNPDTSRNQFTLQLNSVTPEDTALYYCARGYSSSFDYWGQGTLVTVSSASTKGPSVFPLAPSSKSTSGGTAALGCLVKDYFPEPVTVSWNSGALTSGVHTFPAVLQSSGLYSLSSVVTVPSSSLGTQTYICNVNHKPSNTKVDKKVEPKSCDKTHTCPPCPAPEAAGGPSVFLFPPKPKDTLMISRTPEVTCVVVSVSHEDPEVKFNWYVDGVEVHNAKTKPREEQYNSTYRVVSVLTVLHQDWLNGKEYKCKVSNKALPAPIEKTISKAKGQPREPQVYTLPPSREEMTKNQVSLTCLVKGFYPSDIAVEWESNGQPENNYKTTPPVLDSDGSFLLYSKLTVDKSRWQQGNVFSCSVMHEALHNHYTQKSLSLSPG
light 1: QSALTQPASVSGSPGQSITISCTGTSSNIGTYKFVSWYQQHPDKAPKVLLYEVSKRPSGVSSRFSGSKSGNTASLTISGLQAEDQADYHCVSYAGSGTLLFGGGTKLTVLGQPKAAPSVTLFPPSSEELQANKATLVCLISDFYPGAVTVAWKADSSPVKAGVETTTPSKQSNNKYAASSYLSLTPEQWKSHRSYSCQVTHEGSTVEKTVAPTECS
heavy 2: EVQLVESGGGLVKPGGSLRLSCAASGFTFSRYNMNWVRQAPGKGLEWVSSINSNSRYIYYADSVKGRFTISRDSAKNSLYLQMNSLRAEDTAVYYCAKTMGDYYYYYGMDVWGQGTTVTVSSASTKGPSVFPLAPSSKSTSGGTAALGCLVKDYFPEPVTVSWNSGALTSGVHTFPAVLQSSGLYSLSSVVTVPSSSLGTQTYICNVNHKPSNTKVDKKVEPKSCDKTHTCPPCPAPEAAGGPSVFLFPPKPKDTLMISRTPEVTCVVVSVSHEDPEVKFNWYVDGVEVHNAKTKPREEQYNSTYRVVSVLTVLHQDWLNGKEYKCKVSNKALPAPIEKTISKAKGQPREPQVYTLPPSREEMTKNQVSLTCLVKGFYPSDIAVEWESNGQPENNYKTTPPVLDSDGSFFLYSRLTVDKSRWQQGNVFSCSVMHEALHNHYTQKSLSLSPG
light 2: QSVLTQPPSVSGAPGQRVTISCTGSSFNLGAGYDVHWYQQVPGTVPKLLIYDNSNRPSGVPDRFSGSKSGTSASLAITGLQAEDETVYYCQSYDSSLSGVVFGGGTKLTVLGQPKAAPSVTLFPPSSEELQANKATLVCLISDFYPGAVTVAWKADSSPVKAGVETTTPSKQSNNKYAASSYLSLTPEQWKSHRSYSCQVTHEGSTVEKTVAPTECS
T cell activation EC50 [M] (CD25+ T cells, C4-2B co-culture, 72 h) [1]: 4.48e-12 M

B4: PS3B919 (bispecific antibody, human IgG1, lambda, L234A L235A)
heavy 1: QVQLQQSGPRLVRPSQTLSLTCAISGDSVFNNNAAWSWIRQSPSRGLEWLGRTYYRSKWLYDYAVSVKSRITVNPDTSRNQFTLQLNSVTPEDTALYYCARGYSSSFDYWGQGTLVTVSSASTKGPSVFPLAPSSKSTSGGTAALGCLVKDYFPEPVTVSWNSGALTSGVHTFPAVLQSSGLYSLSSVVTVPSSSLGTQTYICNVNHKPSNTKVDKKVEPKSCDKTHTCPPCPAPEAAGGPSVFLFPPKPKDTLMISRTPEVTCVVVSVSHEDPEVKFNWYVDGVEVHNAKTKPREEQYNSTYRVVSVLTVLHQDWLNGKEYKCKVSNKALPAPIEKTISKAKGQPREPQVYTLPPSREEMTKNQVSLTCLVKGFYPSDIAVEWESNGQPENNYKTTPPVLDSDGSFLLYSKLTVDKSRWQQGNVFSCSVMHEALHNHYTQKSLSLSPG
light 1: QSALTQPASVSGSPGQSITISCTGTSSNIGTYKFVSWYQQHPDKAPKVLLYEVSKRPSGVSSRFSGSKSGNTASLTISGLQAEDQADYHCVSYAGSGTLLFGGGTKLTVLGQPKAAPSVTLFPPSSEELQANKATLVCLISDFYPGAVTVAWKADSSPVKAGVETTTPSKQSNNKYAASSYLSLTPEQWKSHRSYSCQVTHEGSTVEKTVAPTECS
heavy 2: EVQLVESGGGLVQPGGSLRLSCAASGFTFSSYAMSWVRQAPGKGLEWVSAISGGIGSTYYADSVKGRFTISRDNSKNTLWLQMNSLRAEDTAVYYCAKDGVGATPYYFDYWGQGTLVTVSSASTKGPSVFPLAPSSKSTSGGTAALGCLVKDYFPEPVTVSWNSGALTSGVHTFPAVLQSSGLYSLSSVVTVPSSSLGTQTYICNVNHKPSNTKVDKKVEPKSCDKTHTCPPCPAPEAAGGPSVFLFPPKPKDTLMISRTPEVTCVVVSVSHEDPEVKFNWYVDGVEVHNAKTKPREEQYNSTYRVVSVLTVLHQDWLNGKEYKCKVSNKALPAPIEKTISKAKGQPREPQVYTLPPSREEMTKNQVSLTCLVKGFYPSDIAVEWESNGQPENNYKTTPPVLDSDGSFFLYSRLTVDKSRWQQGNVFSCSVMHEALHNHYTQKSLSLSPG
light 2: QSVLTQPPSVSAAPGQKVTISCSGSSSNIGNNYVSWYQQLPGTAPKLLIYDNNKRPSGIPDRFSGSKSGTSATLGITGLQTGDEADYYCGTWDSSLSAYVFGTGTKVTVLGQPKAAPSVTLFPPSSEELQANKATLVCLISDFYPGAVTVAWKADSSPVKAGVETTTPSKQSNNKYAASSYLSLTPEQWKSHRSYSCQVTHEGSTVEKTVAPTECS
T cell activation EC50 [M] (CD25+ T cells, C4-2B co-culture, 72 h) [1]: 1.87e-10 M | Tumor killing EC50 [M] (C4-2B + PAN-T cells, 72 h, flow cytometry) [4]: 2.1e-10 M
